# Patent publication US20180118829A1 (JOUNCE THERAPEUTICS, published 2018)
# Changes are numbered by the printed parent chain.
# B1: antibody 13406 (antibody, V domains shown)
# VH: QVQLVQSGAEVKKPGASVKVSCKASGYTFDQYYMHWVRQAPGQGLEWMGIINPSGGSTAYAQKFQGRVTMTRDTSTSTVYMELSSLRSEDTAVYYCARGGTYYDYTYWGQGTLVTVSS
# VL: DIQMTQSPSTLSASVGDRVTITCRASQSISSWLAWYQQKPGKAPKLLIYEASSLESGVPSRFSGSGSGTEFTLTISSLQPDDFATYYCQQYNSFPPTFGGGTKVEIK
# B2: antibody 12228 (antibody, V domains shown)
# VH: B1 VH with D30T, Q31S, A59S
# VL: B1 VL
# B3: antibody 13407 (antibody, V domains shown)
# VH: B1 VH with D30P, Q31S, S54E
# VL: B1 VL
# B4: antibody 13408 (antibody, V domains shown)
# VH: B1 VH with D30S, Q31D, S57V
# VL: B1 VL
# B5: 13407 Fab (Fab, V domains shown)
# VH: B1 VH with D30P, Q31S, S54E
# VL: B1 VL
# B6: antibody 13405 (antibody, V domains shown)
# VH: QVQLVQSGAEVKKPGASVKVSCKASGYTFASYYMGWVRQAPGQGLEWMGIINPAGGSTAYAQKFQGRVTMTRDTSTSTVYMELSSLRSEDTAVYYCARHEYGMDVWGQGTTVTVSS
# VL: B1 VL
# Experiments:
# [1] = target: Human PD-1 (monovalent antigen) (human, UniProt Q15116 25-167, limits assumed); test: ForteBio BLI, IgG on AHQ sensor, monovalent antigen in solution
# Human PD-1 (monovalent antigen), sequence (Q15116 25-167 limits assumed): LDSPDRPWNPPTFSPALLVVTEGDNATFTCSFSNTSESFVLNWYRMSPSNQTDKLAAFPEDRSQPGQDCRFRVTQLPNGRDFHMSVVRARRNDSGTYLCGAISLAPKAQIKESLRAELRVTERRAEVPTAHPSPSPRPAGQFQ
# Method: (§1) The affinity of the PD-1 antibodies was determined by measuring their KD by ForteBio or MSD-SET. […] Briefly, ForteBio affinity measurements were performed by loading IgGs on-line onto AHQ sensors. Sensors were equilibrated off-line in assay buffer for 30 min and then monitored on-line for 60 seconds for baseline establishment. Sensors with loaded IgGs were exposed to 100 nM antigen for 5 minutes, afterwards they were transferred to assay buffer for 5 min for off-rate measurement. Kinetics were analyzed using the 1:1 binding model.
# [2] = target: T1, Mouse PD-1 (monovalent antigen) (mouse, UniProt Q02242 25-167, limits assumed); test: as above
# T1 sequence (looked up): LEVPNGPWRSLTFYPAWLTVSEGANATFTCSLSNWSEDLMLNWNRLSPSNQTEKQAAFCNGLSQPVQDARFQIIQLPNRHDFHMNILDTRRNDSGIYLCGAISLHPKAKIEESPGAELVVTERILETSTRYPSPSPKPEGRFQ
# Method: as §1
# [3] = target: T2, Human PD-1 N33-Q167 ECD-Fc-His6 (human); test: BLI (ForteBio OctetRED96), PD-1 ECD-Fc-His6 panel; Y = affinity within ~5-fold of WT human PD-1
# T2 construct: also called N-terminal truncated variant N33-Q167
# T2 sequence (chain, as listed by the source limits assumed): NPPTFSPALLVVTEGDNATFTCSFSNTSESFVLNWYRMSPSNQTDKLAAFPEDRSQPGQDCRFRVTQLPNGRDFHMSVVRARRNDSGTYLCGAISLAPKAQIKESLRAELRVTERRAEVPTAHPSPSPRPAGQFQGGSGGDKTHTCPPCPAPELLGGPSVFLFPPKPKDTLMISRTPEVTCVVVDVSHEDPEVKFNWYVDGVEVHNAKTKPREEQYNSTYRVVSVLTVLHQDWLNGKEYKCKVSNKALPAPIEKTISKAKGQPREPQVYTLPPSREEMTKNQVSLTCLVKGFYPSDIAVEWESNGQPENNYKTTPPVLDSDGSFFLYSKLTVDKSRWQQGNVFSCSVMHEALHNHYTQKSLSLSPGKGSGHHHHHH
# Method: (§2) All protein interactions were assessed on a ForteBio OctetRED96 instrument. Proteins were diluted in kinetics buffer formulation (PBS +0.1% BSA, 0.02% Tween20, 0.05% sodium azide) with a sample volume was 220 μl/well. Ligand concentrations were normalized at 10 μg/ml and analyte concentrations at 100 nM. The blocking reagent was employed at a concentration of 250 μg/ml. Sensor equilibration time was set for 60 sec, and sample loading time established at 300 sec. Human Fc blocking time was set for 300 sec. Analysis of association time was set for 300 sec and dissociation time for 600 sec.
# [4] = target: T3, Cynomolgus monkey PD-1 ECD-Fc-His6 (cynomolgus monkey); test: as above
# T3 construct: also called Cyno WT PD-1 ECD-Fc fusion
# T3 sequence (chain, as listed by the source limits assumed): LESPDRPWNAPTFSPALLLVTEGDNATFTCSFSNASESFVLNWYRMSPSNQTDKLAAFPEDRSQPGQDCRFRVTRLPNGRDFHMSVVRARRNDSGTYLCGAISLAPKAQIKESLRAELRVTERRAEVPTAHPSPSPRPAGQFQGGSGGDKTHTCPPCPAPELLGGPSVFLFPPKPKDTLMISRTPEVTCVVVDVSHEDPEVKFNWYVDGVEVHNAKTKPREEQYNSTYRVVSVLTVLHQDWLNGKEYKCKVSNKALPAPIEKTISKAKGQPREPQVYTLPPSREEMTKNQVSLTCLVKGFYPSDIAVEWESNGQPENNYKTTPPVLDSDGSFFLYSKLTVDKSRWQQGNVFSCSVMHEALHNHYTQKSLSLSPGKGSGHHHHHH
# Method: as §2
# Mouse PD-1 ECD-Fc-His6 = target: T4, Mouse PD-1 ECD-Fc-His6 (mouse); test: as above
# T4 construct: also called Mouse WT PD-1 ECD-Fc fusion
# Method: as §2
# [5] = target: Human PD-1 R86L ECD-Fc-His6 (human); test: as above
# Human PD-1 R86L ECD-Fc-His6 (human), sequence (chain, as listed by the source R86L R86L limits assumed): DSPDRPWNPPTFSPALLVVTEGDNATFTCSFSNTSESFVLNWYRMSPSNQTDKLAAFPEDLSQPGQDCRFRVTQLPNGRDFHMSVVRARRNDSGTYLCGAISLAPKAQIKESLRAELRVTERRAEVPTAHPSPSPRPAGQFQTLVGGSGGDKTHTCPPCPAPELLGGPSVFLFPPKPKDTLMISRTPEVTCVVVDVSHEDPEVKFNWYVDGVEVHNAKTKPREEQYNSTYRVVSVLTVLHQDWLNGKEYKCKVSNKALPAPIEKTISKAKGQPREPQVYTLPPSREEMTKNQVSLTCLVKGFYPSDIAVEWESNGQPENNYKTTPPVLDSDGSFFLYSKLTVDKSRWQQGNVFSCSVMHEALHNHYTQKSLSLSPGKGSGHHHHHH
# Method: as §2
# [6] = target: Human PD-1 D85G ECD-Fc-His6 (human); test: as above
# Human PD-1 D85G ECD-Fc-His6 (human), sequence (chain, as listed by the source D85G D85G limits assumed): as the sequence (chain, as listed by the source R86L R86L limits assumed) above, with D60G, L61R counted along it
# Method: as §2
# [7] = target: Human PD-1 D85G/R86L ECD-Fc-His6 (human); test: as above
# Human PD-1 D85G/R86L ECD-Fc-His6 (human), sequence (chain, as listed by the source D85G R86L D85G R86L limits assumed): as the sequence (chain, as listed by the source R86L R86L limits assumed) above, with D60G counted along it
# Method: as §2
# [8] = target: Human PD-1 K78A ECD-Fc-His6 (human); test: as above
# Human PD-1 K78A ECD-Fc-His6 (human), sequence (chain, as listed by the source K78A K78A limits assumed): as the sequence (chain, as listed by the source R86L R86L limits assumed) above, with K53A, L61R counted along it
# Method: as §2
# [9] = target: Rat P129H PD-1 ECD-Fc-His6 (rat); test: as above
# Rat P129H PD-1 ECD-Fc-His6 (rat), sequence (chain, as listed by the source P129H P129H limits assumed): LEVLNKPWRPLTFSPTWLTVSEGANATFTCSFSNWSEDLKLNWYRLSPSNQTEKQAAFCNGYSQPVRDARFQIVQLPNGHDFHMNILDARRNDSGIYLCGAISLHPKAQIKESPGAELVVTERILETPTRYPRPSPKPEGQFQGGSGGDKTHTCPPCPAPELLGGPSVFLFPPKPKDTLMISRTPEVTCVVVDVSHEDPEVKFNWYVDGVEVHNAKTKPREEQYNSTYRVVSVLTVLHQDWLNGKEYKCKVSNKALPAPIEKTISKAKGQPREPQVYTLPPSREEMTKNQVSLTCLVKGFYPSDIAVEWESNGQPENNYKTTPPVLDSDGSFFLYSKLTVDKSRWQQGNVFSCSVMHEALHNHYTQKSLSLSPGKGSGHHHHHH
# Method: as §2
# [10] = target: T5, Human PD-1 extracellular domain (ECD)-Fc-His6 (human); test: as above
# T5 construct: also called Human WT PD-1 ECD-Fc fusion
# T5 sequence (chain, as listed by the source limits assumed): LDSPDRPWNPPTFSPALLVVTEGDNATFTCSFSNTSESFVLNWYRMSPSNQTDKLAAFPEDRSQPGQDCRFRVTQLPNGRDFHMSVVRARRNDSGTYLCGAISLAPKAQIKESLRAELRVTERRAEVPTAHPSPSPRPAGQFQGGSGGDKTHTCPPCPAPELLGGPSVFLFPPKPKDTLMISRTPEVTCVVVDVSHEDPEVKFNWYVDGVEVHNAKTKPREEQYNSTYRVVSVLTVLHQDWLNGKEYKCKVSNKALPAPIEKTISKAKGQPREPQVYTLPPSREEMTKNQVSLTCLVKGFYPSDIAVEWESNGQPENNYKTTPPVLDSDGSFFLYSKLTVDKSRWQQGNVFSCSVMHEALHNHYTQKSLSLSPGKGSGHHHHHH
# Method: as §2
# [11] = target: Human PD-1 I126A ECD-Fc-His6 (human); test: BLI (ForteBio OctetRED96), PD-1 ECD-Fc-His6 panel; Reduced = affinity reduced >10-fold and <100-fold vs WT human PD-1
# Human PD-1 I126A ECD-Fc-His6 (human), sequence (chain, as listed by the source I126A I126A limits assumed): as the sequence (chain, as listed by the source R86L R86L limits assumed) above, with L61R, I101A counted along it
# Method: as §2
# [12] = target: Human PD-1 L128A ECD-Fc-His6 (human); test: as above
# Human PD-1 L128A ECD-Fc-His6 (human), sequence (chain, as listed by the source L128A L128A limits assumed): as the sequence (chain, as listed by the source R86L R86L limits assumed) above, with L61R, L103A counted along it
# Method: as §2
binder,measurement,setting,value
B1,Kd,[1],3.2 nM
same,Kd,[2],3.5 nM
B2,Kd,[1],49 nM
same,Kd,[2],6.3 nM
B3,Kd,[1],3.9 nM
same,Kd,[2],3.2 nM
B4,Kd,[1],1.2 nM
same,Kd,[2],5.3 nM
B5,binding result,[3],binds
same,binding result,[4],binds
same,binding result,Mouse PD-1 ECD-Fc-His6,binds
same,binding result,[5],binds
same,binding result,[6],binds
same,binding result,[7],binds
same,binding result,[8],binds
same,binding result,[9],binds
same,binding result,[10],binds
same,binding result,[11],binds
same,binding result,[12],binds
B6,Kd,[1],73 nM
same,Kd,[2],7.2 nM
